The values below come from article PMC9557730.

B1: N-terminal 3×-FLAG-tagged p52 (WT) [human] / p44 [human (endogenous in HEK293T)] (parent)
chain 1: MESTPSRGLNRVHLQCRNLQEFLGGLSPGVLDRLYGHPATCLAVFRELPSLAKNWVMRMLFLEQPLPQAAVALWVKKEFSKAQEESTGLLSGLRIWHTQLLPGGLQGLILNPIFRQNLRIALLGGGKAWSDDTSQLGPDKHARDVPSLDKYAEERWEVVLHFMVGSPSAAVSQDLAQLLSQAGLMKSTEPGEPPCITSAGFQFLLLDTPAQLWYFMLQYLQTAQSRGMDLVEILSFLFQLSFSTLGKDYSVEGMSDSLLNFLQHLREFGLVFQRKRKSRRYYPTRLAINLSSGVSGAGGTVHQPGFIVVETNYRLYAYTESELQIALIALFSEMLYRFPNMVVAQVTRESVQQAIASGITAQQIIHFLRTRAHPVMLKQTPVLPPTITDQIRLWELERDRLRFTEGVLYNQFLSQVDFELLLAHARELGVLVFENSAKRLMVVTPAGHSDVKRFWKRQKHSS
chain 2: MDEEPERTKRWEGGYERTWEILKEDESGSLKATIEDILFKAKRKRVFEHHGQVRLGMMRHLYVVVDGSRTMEDQDLKPNRLTCTLKLLEYFVEEYFDQNPISQIGIIVTKSKRAEKLTELSGNPRKHITSLKKAVDMTCHGEPSLYNSLSIAMQTLKHMPGHTSREVLIIFSSLTTCDPSNIYDLIKTLKAAKIRVSVIGLSAEVRVCTVLARETGGTYHVILDESHYKELLTHHVSPPPASSSSECSLIRMGFPQHTIASLSDQDAKPSFSMAHLDGNTEPGLTLGGYFCPQCRAKYCELPVECKICGLTLVSAPHLARSYHHLFPLDAFQEIPLEEYNGERFCYGCQGELKDQHVYVCAVCQNVFCVDCDVFVHDSLHCCPGCIHKIPAPSGV

Variants of B1 are the subject of this assay. As to the kind of experiment: FLAG-IP LC–MS (iBAQ). Particulars: with p44 [human (endogenous in HEK293T)]; HEK293T nuclear extracts; n = 3, biological replicates; read off a plot.
chain 1 E310F: the response (Normalized Log2 iBAQ) was 0.64.

As to chain 1 R337A F338A, the response (Normalized Log2 iBAQ) came out at 0.71.

Turning to chain 1 Y316A Y318A, the response (Normalized Log2 iBAQ) amounted to 0.66.

On to chain 1 E310A R314A, for which the response (Normalized Log2 iBAQ) worked out at 0.66.
